The values below come from patent US20070059314A1.

The target in the assay is VEGF165 (UniProt P15692). Description: cell-based or functional assay.
Sequence of VEGF165 (P15692 other isoform, or with tags, fused parts or gaps limits assumed): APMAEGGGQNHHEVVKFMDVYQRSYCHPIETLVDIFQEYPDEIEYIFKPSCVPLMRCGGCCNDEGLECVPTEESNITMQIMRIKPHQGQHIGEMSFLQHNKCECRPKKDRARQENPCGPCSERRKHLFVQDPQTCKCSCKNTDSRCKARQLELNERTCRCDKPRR

Substance “C-terminal fragment of the NOV protein (amino acids 188 to 357) (from UniProt P48745 188-357)” yielded an HUAEC cell proliferation induced by 2 ng/ml VEGF165 (crystal violet, OD 595 nm) of 200 ng/mL.
